Assay results reported in patent US20190031733A1.

Biological target: Pmel-TCR (mouse)
Experiment: flow cytometry, APC-tetramer staining of FACS-sorted 293TREx-CD3-Pmel-TCR cells

Pmel-TCR (mouse), sequence (TCR alpha, as listed by the source, form in doubt, chain 1 of 2): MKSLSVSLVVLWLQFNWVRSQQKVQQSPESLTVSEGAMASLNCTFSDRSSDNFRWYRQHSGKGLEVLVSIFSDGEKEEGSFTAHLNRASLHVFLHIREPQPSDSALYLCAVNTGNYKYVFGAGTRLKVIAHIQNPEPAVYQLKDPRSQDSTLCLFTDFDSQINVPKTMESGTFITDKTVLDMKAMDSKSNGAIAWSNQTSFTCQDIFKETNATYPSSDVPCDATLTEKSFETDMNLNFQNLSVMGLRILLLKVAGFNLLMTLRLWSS
Pmel-TCR (mouse), sequence (TCR beta, as listed by the source, form in doubt, chain 2 of 2): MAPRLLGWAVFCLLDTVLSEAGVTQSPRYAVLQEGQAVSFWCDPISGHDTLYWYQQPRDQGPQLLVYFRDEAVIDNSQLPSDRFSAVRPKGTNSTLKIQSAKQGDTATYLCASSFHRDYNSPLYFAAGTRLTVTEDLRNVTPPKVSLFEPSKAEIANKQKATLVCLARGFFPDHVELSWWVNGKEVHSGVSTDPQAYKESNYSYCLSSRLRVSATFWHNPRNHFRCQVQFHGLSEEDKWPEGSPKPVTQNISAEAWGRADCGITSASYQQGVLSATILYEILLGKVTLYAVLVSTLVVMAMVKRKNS

- percent of cells stained with the tetramers: 81.5%
Substance: APC-streptavidin tetramer of H-2D^b mouse MHC class I molecules loaded with the human gp100 peptide … (from UniProt P01899 25-362) (peptide-MHC)
